Assay results published in patent US20090035818A1.
pKd: −log10 of the molar value.

Experiments:
[1] = target: chicken egg yolk antibody (chicken IgY antibody) (chicken); experiment: SPR (Biacore 2000), chicken IgY on CM5 chip, lectin as analyte
[2] = target: asialotransferrin (human) (UniProt P02787); experiment: SPR, asialotransferrin on CM5 chip, lectin as analyte
asialotransferrin (human), sequence (P02787 20-698 limits assumed): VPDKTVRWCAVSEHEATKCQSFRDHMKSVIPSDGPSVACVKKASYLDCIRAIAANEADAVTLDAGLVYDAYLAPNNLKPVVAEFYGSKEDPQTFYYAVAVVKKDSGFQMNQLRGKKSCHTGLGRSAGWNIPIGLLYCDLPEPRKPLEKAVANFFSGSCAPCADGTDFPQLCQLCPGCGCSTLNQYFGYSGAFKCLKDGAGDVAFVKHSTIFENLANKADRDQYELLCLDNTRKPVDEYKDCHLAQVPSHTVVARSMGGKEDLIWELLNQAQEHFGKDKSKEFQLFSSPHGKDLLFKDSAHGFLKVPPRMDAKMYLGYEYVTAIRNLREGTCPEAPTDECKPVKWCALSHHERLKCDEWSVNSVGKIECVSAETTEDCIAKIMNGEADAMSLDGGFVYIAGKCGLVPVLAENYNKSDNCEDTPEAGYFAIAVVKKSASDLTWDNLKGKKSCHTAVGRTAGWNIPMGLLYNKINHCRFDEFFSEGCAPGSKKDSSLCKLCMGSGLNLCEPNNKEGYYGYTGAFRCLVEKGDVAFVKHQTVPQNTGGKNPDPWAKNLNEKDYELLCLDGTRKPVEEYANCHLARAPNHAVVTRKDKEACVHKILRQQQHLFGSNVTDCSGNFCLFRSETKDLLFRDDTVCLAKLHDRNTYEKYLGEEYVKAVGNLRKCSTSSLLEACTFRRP

Ka [1]	pKd [1]	koff [1]	kon [1]	Ka [2]	Substance
6.57e+07 M⁻¹	7.82	0.00172 s⁻¹	113000 M⁻¹ s⁻¹	1e+08 M⁻¹	Carpopeltis flabellata-derived lectin Carnin
7.1e+07 M⁻¹	7.85	0.000298 s⁻¹	21200 M⁻¹ s⁻¹		Hypnea japonica-derived lectin Hypnin A-1
2.88e+07 M⁻¹	7.46	0.00564 s⁻¹	162000 M⁻¹ s⁻¹		Solieria robusta-derived lectin Solnin B

Substance	Ka [1]	pKd [1]	koff [1]	kon [1]	Ka [2]
Canavallia ensiformis-derived lectin Con A (from UniProt P02866 30-281)	1.87e+07 M⁻¹	7.27	2.49e-05 s⁻¹	467 M⁻¹ s⁻¹	
